From article PMC5148205

Biological target: T1, H-NS (Shewanella oneidensis MR-1) (UniProt Q8ECJ6)
T1 sequence: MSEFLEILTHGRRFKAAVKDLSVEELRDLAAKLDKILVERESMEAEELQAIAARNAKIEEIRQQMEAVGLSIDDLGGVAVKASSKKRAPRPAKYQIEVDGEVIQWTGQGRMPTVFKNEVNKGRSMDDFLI
Assay: EMSA
Settings: H-NS incubated with biotin-labelled probe with or without unlabelled probe, 1 h at different temperatures; binding buffer not stated (refers to Liu et al. 2015)

TAGCGATGAAATGGCTTTTTGGGTGGCGGTTTATCGTGATTAACGCAGAAGGTGAAGCGTGGTACATCGATGTTAAACCTGATGCCAAAGTAAAACCTGTTGGTAAAAATAAGGACGGTGCATAATGTTTCAGCAAGAAATAGAAGCTATGCAGGGTAAAGTGGTGCAGCAG (double strand) [PSO_3012 (LambdaSo excisionase promoter)]
binding: no binding

GATTTTCTAGTGACAGAAGGTTTTAGCGTTGATAATGCCAAATATGCTGAATTATTTTTGAGACCGAGTAAATTTCTTAGGGGACCAAAAAAACGCATATAATACAATGGATAATGCAATTTAGGTGAGCAAAGGGGACCGTTTTTACCCCGTTTATTCATGCTTCATAACCATCTAATCTCAGGGTTGTAGACGTTTATTCACAACTCTGAGGACGATTATGAACACAACTCTCAC (double strand) [PalpA (alpA promoter)]
binding: binds
